Source: doi:10.1101/2024.05.01.590489 (bioRxiv, 2024)

B1: mAb1-1 (antibody, V domains shown)
VH: EVQLVESGGGLVKPGGSLRLSCAASGVPFSDAWMNWVRQAPGKGLEWVGRIKSKKDGGTADYAAPVKGRFSISRDDSKKMLYLHMNSLKTEDTAVYYCTTEPSGYCSNGLCYTGNYWGQGTLVTVSS
VL: QPVLTQSSSASASLGSSVKLTCTLSSGHITYIIAWHQQQPGKAPRYLMKLEDSGSYNKGSGVPDRFSGSSSGADRYLTISNLQFEDEADYYCETWDSYTRVFGGGTKLT
B2: mAb1-2 (antibody, V domains shown)
VH: EVQLVESGGGLVQPGGSLRLSCAASGFIFSNYWMSWVRQAPGKGPEWVANIKQDGSANHYVDSVKGRFTISRDNAKNSLYLQMNSLRAEDTAVYYCAREAYQDWNYDYWGQGTLVTVSS
VL: DIQMTQSPSSLSASVGDRVTVTCRASEFISRYLNWYQQKPGKAPKVLIYAASSLQSGVPSRFSGSGSGTDFTLTISSLQPEDFATYYCQQSYSTPYTFGQGTKLEIK
B3: mAb1-3 (antibody, V domains shown)
VH: VQLVESGGGVVQPGRSLRLSCAASGFSFSSFVFHWVRQAPGKGLEWVAVISYDGSNKNYADSVKGRFTISRDNSKNTLFLQMNSLSADDTAVYYCARGAICSSTTCYLGDSYYFYGMDVWGQGTTVTVSS
VL: LTQPPSVSGAPGQRVTISCTGSRSNIGAGYDVHWYQQLPGTAPKLLIYGNSNRPSGVPDRFSGSKSGTSASLAITGLQTDDEADYYCQSYDSSLSGSVFGGGTKLTVL
B4: mAb1-4 (antibody, V domains shown)
VH: QVQVVESGAEVKKPGASVKVSCKASGYAFTTYYMHWVRQAPGQGLEWMGLINPSGDSITYAQRFQGRVTMTKDTSTSTVYMELSSLRSEDTAIYYCARDPNVAFYYGSGNYYKDNAMDVWGQGTTVTVSS
VL: not shown
B5: mAb1-5 (antibody, V domains shown)
VH: EVQLVESGGGLVKPGGSLRLSCAASGFMFSSYSMNWVRQAPGKGLEWVSSISRSDSYIDYADSVKGRFTISRDTAMNVLYLQMDSLRAEDTGVYYCARTHVFNMFREVINDDYYGMDVWGQGTTVTVS
VL: ALTQPASVSGSPGQSITISCTGTSSDFGIYNSVSWYQHHPGKAPKLMIFGVSNRPSGVSNRFSGSKSGNTASLSISGLQAEDEADYYCSSFTARSTVVFGGGTKLTVL
B6: mAb1-7 (antibody, V domains shown)
VH: QVQLQESGPGLVKPSETLSLTCTVSGDSIRSYYWSWIRQPPGKGLEWIGHIYYSGSTNYKPSLKSRATILVDTSKNQFSLKLRSVTAADTAVYYCAREMTGVAGRGWDHWGQGTLVTVSS
VL: ALTQPPSASGTPGQRVTISCSGSSSNIGSNTVNWYQQLPGTAPKLLIFINNQRPSGVPDRFSGSKSGTSASLAISGLQSEDEADYYCTTWDGSLNGYVFGTRTEVTVL
B7: mAb2-1 (antibody, V domains shown)
VH: EVQLLESGGGLVQPGKSLRLSCAASGFSFSNYAMSWVRQAPGKGLEWVSGISGSGGSTNYAESVRGRFTISRDNSKNTLYLEMNSLRVEDTAVYYCAKGMSYYDRSGYFWAKYHYGMDVWGQGITVTVSS
VL: not shown
B8: mAb2-2 (antibody, V domains shown)
VH: QVQLQESGPGLVKPSVTLSLTCTVSGDSISTYYWSWVRQPPGKGLEWIGYIYYSGNTNYNPSLKSRVTMSVDTSKNQFSLKLNSVTAADTAVYYCARTHHDYGDYRPSYYFDYWGQGTLVTVSS
VL: QSALTQPASVSGSPGQSITISCTGTSSDVGAYDYVSWYQQHPGKAPKLMIYDVSNRPSSGVSNRFSGSKSGNTASLTISGLQAEDEADYYCSSYTSSSTVILGGGTKLTVL
B9: mAb2-3 (antibody, V domains shown)
VH: VQLVESGGGLVKPGGSLRLSCATSGFTFSDYYMSWIRQAPGKGLEWVSYISSSGSTIYYADSVKGRFTMSRDNAKNSLFLRMNSLRAEDTAVYYCARDQITVDREVIRAHYYYGMDVWGQGTTVTVS
VL: DIQMTQSPSSVSASVGDRVTITCRASQGINSYLAWYQQKPGKAPKLLIYAASSLESGVPSRFSGSGSGTDFTLTISSLQPEDFATYYCQQANSFPLTFGGGTKVDI
B10: mAb2-4 (antibody, V domains shown)
VH: EVQLLESGGGLVHPGGSLRLSCAASGFPFSNFAMSWVRQAPGKGLEWVSTISGSSGSTYYADSVRGRFTISRDYSKNTVYLEMNSLRADDTAIYYCAKDRMITFGEVIVKHYDAFEIWGQGTRVAV
VL: DIQMTQSPSSLSASVGDRVTITCRASQTISTNVNWYQQKPGKAPKLLIYAASSLQSGVPSRFSGSGSGTDFTLTISSLQPEDFATFYCQQSYSAPLTFGEGTKV
B11: mAb2-5 (antibody, V domains shown)
VH: EVQLVESGGGLVKPGGSPRLSCAASGFNFGSYSMNWVRQAPGKGLEWVSSISSSSSYIYYADSVKGRFTISRDNAKHSLYLQVNSLRAEDTAVYYCARDPTTYGYNSAWDKKGWYFDLWGRGTLLTVS
VL: VLTQPPSVSAAPGQMVTISCSGSSSNIGNDYISWYQQLPGTAPKLLIYDNNERPSGIPDRFSGSKSGTSATLGITGVQTGDEADYYCGTWDSSLSAWVFGEGTKLTVV
B12: mAb2-6 (antibody, V domains shown)
VH: VQLLESGGALVQPGGSLRLSCAASGFSFSNYAMSWVRQAPGKGLEWVSTISASGGTTYFADSVKGHFTISRDNSKNTLYLQMDSLRAEDTAVYYCAKDPNYYDLSGYFLGGYYFDYWGQGTLVTVSS
VL: EIVLTQSPGTLSLSPGERATLSCRASQSVRSSYLAWYQQKPGQAPRLLIYGASSRATDIPDRFSGSGSGTDFTLTISRLEPEDFAVYYCQQYGTSPAFGGGTKV
B13: mAb3-1 (antibody, V domains shown)
VH: EVQLLESGGGLVQPGGSLRLSCEASGFTFSRYPMNWVRQAPGKGLEWVSHISASGGTTYYADTVKGRFSISRDNSKNTLYLEMNSLRAEDTAIYFCAKDYPPDEVTMIVVGMPYFDSWGLGTLVSVSS
VL: not shown
B14: mAb3-2 (antibody, V domains shown)
VH: EVQLLESGGGLVQPGGSLRLSCAASGFTFSNYAMSWVRQAPGKGLEWVSLISGSGGSIDYADSVKGRFTISRDNSKNTLYLQMDSLRAEDTAVYYCSKDPIYYDLSGYYAGRIYYFDYWGQGTLVTVSS
VL: EIVMTQSPATLSVSPGDTATLSCRASHSVSRDLAWYQQKPGQAPRLLIYDASTRATGIPARFSGSGSGTEFTLTISSLQSEDFAVYYCQQYINWVTFGPGTKVDIE
B15: mAb3-3 (antibody, V domains shown)
VH: QVQLQESGPGLVKSSETLSLTCTVSGESISSSSHYWGWIRQPPGKGLEFLGNVYYLGSTYYNPSLESRVTILLDTSKNQFSLKVNSVTVADTAVYYCARHGAGSYSGLFFDYWGQGARVIVSS
VL: DIQMTQSPSFVSASVGDRVNITCRASQGINSWLAWYQQKPGKAPKLLIYSASSLQSGVPSRFSGSGSGTDFTLTISTLQPEDFATYYCQQANSFPYTFGQGTKVD
B16: mAb3-4 (antibody, V domains shown)
VH: AVESGGGLVKPGGPLRLSCAASGFSLSDNYMTWIRQAPGKGLEWVSYISSSGSFINYADSVKGRFTISRDNAKNSLYLQMNSLRAEDTAVYYCARVLSSGGLTTSWRALWYFDVWGRGTLVTVS
VL: TVVTQEPSFSVSPGGTVTLTCGLTSGSVSTSYYPSWYQQTPGQTPRTLIYSTNIRSSGVPDRFSGSILGNKAALTITGAQADDECDYYCVLYMGSGIWVFGGGTKLTVL
B17: mAb3-5 (antibody, V domains shown)
VH: EVQLVESGGGLVQPGGSLRLSCAASGFTFSNYGMNWVRQAPGKGLEWVSYISSGGTIYYADSVKGRFTISRDNAKNSVYLQMNSLRAEDTAVYYCARDPAYCGDDCYTIPAHYFDYWGQGTPVTVS
VL: DIQMTQSPSSLSASVGDRVTITCRTSQSISRYLNWYQQKPGKAPKLLIYAASSLQSGVPSRFTGSGSGTDFTLTISSLQPEDFATYYCQQSYSIPPVTFGQGTRVD
B18: mAb3-6 (antibody, V domains shown)
VH: EVQLVESGGGLVQPGGSLRLSCSASGFHFSSYEMNWVRQAPGKGLEWVSYISSSGTYIDYADSVKGRFTISRDNPANSLYLQMYSLRAEDTAVYYCARRLWFGELPYSYYYGMDVWGQGTTVTVSS
VL: ALTQPASVSGSPGQSITISCTGTSSDIGGYNYVSWYQQHPGKAPELLIFDVSNRPSGVSNRFSGSKSGNTASLTISGLQAEDEADYHCCSYTRTSTVIFGGGTKLTVL
B19: mAb3-7 (antibody, V domains shown)
VH: QVQLQESGPGLVKPSETLSLTCTVSGGSISNYYWNWIRQPPGKGLEWIGYVHYSGSTNYNPSLKSRVSVSVDTSKNQFSLNLGSVTAADTAVYYCARQSRSYYNEVITDPKYNFDYWGQGTLVTVSS
VL: QSALTQPASVSGSPGQSITISCTGTSSDVGGYDYVSWYQQHPGKAPKLMIYDVSNRPSGVSNRFSGSKSGNTASLTISGLQAEDEADYYCSSYTSISTLVFGGGTKLTVL

Target: AAV9 capsid (adeno-associated virus serotype 9 (AAV9), UniProt Q6JC40)
Test: far-Western, overlay or dot blot

| Binder | binding result |
| --- | --- |
| B1 | binds |
| B2 | binds |
| B3 | binds |
| B4 | binds |
| B5 | binds |
| B6 | binds |
| B7 | binds |
| B8 | binds |
| B9 | binds |
| B10 | binds |
| B11 | binds |
| B12 | binds |
| B13 | binds |
| B14 | binds |
| B15 | binds |
| B16 | binds |
| B17 | binds |
| B18 | binds |
| B19 | binds |
